Publication PMC11077049, “Unearthing a novel function of SRSF1 in binding and unfolding of RNA G-quadruplexes”

Tests used:
SRSF1 RS [1] = biological target: T1, SRSF1 RS (human, UniProt Q07955 199-248); experiment: FP; 8-mer buffer, 35 mM K3PO4; FP, 10 nM RNA, 37 C 30 min then 25 C 10 min; 21-mers: 25 mM KCl, 0.25 M Arg/Glu, 20 mM Tris-HCl pH 7.5, 0.1 mM EDTA, 0.1 mM TCEP, 0.02% Tween 20; 8-mers: 35 mM; details: protein: recombinant, tags: none (SUMO cleaved), label: 5' fluorescein
T1 chain: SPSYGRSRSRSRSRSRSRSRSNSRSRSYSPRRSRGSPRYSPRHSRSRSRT

SRSF1 RS [2] = biological target: T1, SRSF1 RS; experiment: FP; FP, 10 nM RNA, 37 C 30 min then 25 C 10 min; 21-mers: 25 mM KCl, 0.25 M Arg/Glu, 20 mM Tris-HCl pH 7.5, 0.1 mM EDTA, 0.1 mM TCEP, 0.02% Tween 20; 8-mers: 35 mM; details: protein: recombinant, tags: none (SUMO cleaved), label: 5' fluorescein
SRSF1 RRM tandem [3] = biological target: T2, SRSF1 RRM tandem (human, UniProt Q07955 1-196); experiment: as above; details: protein: recombinant, tags: none (SUMO cleaved), label: 5' fluorescein
T2 sequence (Q07955 1-196): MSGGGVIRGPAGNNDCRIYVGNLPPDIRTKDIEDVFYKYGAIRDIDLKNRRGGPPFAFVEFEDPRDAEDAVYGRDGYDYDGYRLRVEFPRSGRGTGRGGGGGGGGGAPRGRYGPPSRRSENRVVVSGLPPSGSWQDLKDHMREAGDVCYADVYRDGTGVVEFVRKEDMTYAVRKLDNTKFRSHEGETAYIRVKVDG

SRSF1 full-length = SRSF1 full-length (human, UniProt Q07955 1-248); experiment: as above; details: protein: recombinant, tags: none (pSMT3 His-SUMO, Ulp1 cleaved), label: 5' fluorescein
RRM tandem F56A = RRM tandem F56A (human, UniProt Q07955 1-196, F56A); experiment: as above; details: protein: recombinant; tags: SUMO; label: 5' fluorescein; G-quadruplex (parallel)
Chain of RRM tandem F56A (Q07955 1-196 F56A): as the sequence (Q07955 1-196) above, with F56A counted along it

RRM tandem F58A = RRM tandem F58A (human, UniProt Q07955 1-196, F58A); experiment: as above; details: protein: recombinant; tags: SUMO; label: 5' fluorescein; G-quadruplex (parallel)
Chain of RRM tandem F58A (Q07955 1-196 F58A): as the sequence (Q07955 1-196) above, with F58A counted along it

RRM tandem R173A = RRM tandem R173A (human, UniProt Q07955 1-196, R173A); experiment: as above; details: protein: recombinant; tags: SUMO; label: 5' fluorescein; G-quadruplex (parallel)
Chain of RRM tandem R173A (Q07955 1-196 R173A): as the sequence (Q07955 1-196) above, with R173A counted along it

RS mutant KS = RS mutant KS (human, UniProt Q07955 198-248, R198K;R204K;R206K;R208K;R210K;R212K;R214K;R216K;R218K;R222K;R224K;R229K;R230K;R2 …); experiment: as above; details: protein: recombinant; tags: none (SUMO cleaved); label: 5' fluorescein; G-quadruplex (parallel)
RRM tandem WT (Table 3) = RRM tandem WT (Table 3) (human, UniProt Q07955 1-196); experiment: as above; details: protein: recombinant; tags: SUMO; label: 5' fluorescein; G-quadruplex (parallel)
Chain of RRM tandem WT (Table 3) (Q07955 1-196): as the sequence (Q07955 1-196) above

RRM tandem W134A = RRM tandem W134A (human, UniProt Q07955 1-196, W134A); experiment: as above; details: protein: recombinant; tags: SUMO; label: 5' fluorescein; G-quadruplex (parallel)
Chain of RRM tandem W134A (Q07955 1-196 W134A): as the sequence (Q07955 1-196) above, with W134A counted along it

RRM tandem Y19A = RRM tandem Y19A (human, UniProt Q07955 1-196, Y19A); experiment: as above; details: protein: recombinant; tags: SUMO; label: 5' fluorescein; G-quadruplex (parallel)
Chain of RRM tandem Y19A (Q07955 1-196 Y19A): as the sequence (Q07955 1-196) above, with Y19A counted along it

RRM tandem Q135A = RRM tandem Q135A (human, UniProt Q07955 1-196, Q135A); experiment: as above; details: protein: recombinant; tags: SUMO; label: 5' fluorescein; G-quadruplex (parallel)
Chain of RRM tandem Q135A (Q07955 1-196 Q135A): as the sequence (Q07955 1-196) above, with Q135A counted along it

RRM1/RRM2 linker = biological target: T3, RRM1/RRM2 linker (human, UniProt Q07955 92-120); experiment: as above; details: protein: recombinant; label: 5' fluorescein; G-quadruplex (parallel)
T3 chain: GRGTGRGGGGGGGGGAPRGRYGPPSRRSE

RS mutant RA = RS mutant RA (human, UniProt Q07955 198-248, S199A;S201A;S205A;S207A;S209A;S211A;S213A;S215A;S217A;S219A;S221A;S223A;S225A;S2 …); experiment: FP; similar affinity to RS; FP, 10 nM RNA, 37 C 30 min then 25 C 10 min; 21-mers: 25 mM KCl, 0.25 M Arg/Glu, 20 mM Tris-HCl pH 7.5, 0.1 mM EDTA, 0.1 mM TCEP, 0.02% Tween 20; 8-mers: 35 mM; details: protein: recombinant; tags: none (SUMO cleaved); label: 5' fluorescein; G-quadruplex (parallel)
SRSF1 RRM tandem [4] = biological target: T2, SRSF1 RRM tandem; experiment: FP; FP, 10 nM RNA, 37 C 30 min then 25 C 10 min; 21-mers: 25 mM KCl, 0.25 M Arg/Glu, 20 mM Tris-HCl pH 7.5, 0.1 mM EDTA, 0.1 mM TCEP, 0.02% Tween 20; 8-mers: 35 mM; details: protein: recombinant; tags: none (SUMO cleaved); label: 5' fluorescein
SRSF1 RS [5] = biological target: T1, SRSF1 RS; experiment: STD NMR; 0.5 mM RNA, 10 uM RS, D2O; strongest signal; FP, 10 nM RNA, 37 C 30 min then 25 C 10 min; 21-mers: 25 mM KCl, 0.25 M Arg/Glu, 20 mM Tris-HCl pH 7.5, 0.1 mM EDTA, 0.1 mM TCEP, 0.02% Tween 20; 8-mers: 35 mM; details: protein: recombinant; tags: none (SUMO cleaved)
SRSF1 RS [6] = biological target: T1, SRSF1 RS; experiment: STD NMR; 0.5 mM RNA, 10 uM RS, D2O; no signal above noise; FP, 10 nM RNA, 37 C 30 min then 25 C 10 min; 21-mers: 25 mM KCl, 0.25 M Arg/Glu, 20 mM Tris-HCl pH 7.5, 0.1 mM EDTA, 0.1 mM TCEP, 0.02% Tween 20; 8-mers: 35 mM; details: protein: recombinant; tags: none (SUMO cleaved)

B1: 8G (structured_RNA)
RNA: GGGGGGGG
- Kd (SRSF1 RS [1]; intermolecular G-quadruplex): 3 ± 0.8 nM

B2: 8A (ssRNA)
RNA: AAAAAAAA
- Kd (SRSF1 RS [1]): 610 ± 15 nM

B3: 21-mer GA (ssRNA)
RNA: GAGAGAGAGAGAGAGAGAGAG
- Kd (SRSF1 RS [2]): 210 ± 16 nM

B4: 21-mer CU (ssRNA)
RNA: CUCUCUCUCUCUCUCUCUCUC
- Kd (SRSF1 RS [2]): 1400 ± 100 nM

B5: MMP16 GQ (structured_RNA)
RNA: UUGGGAGGGAGGGAGAGGGUU
- Kd (SRSF1 RS [2]; G-quadruplex): 150 ± 10 nM
- Kd (SRSF1 RRM tandem [3]; G-quadruplex): 3500 ± 490 nM
- Kd (SRSF1 full-length; G-quadruplex): 5.9 ± 0.6 nM

B6: TERRA GQ (structured_RNA)
RNA: UGGGUUAGGGUUAGGGUUAGGG
- Kd (SRSF1 RS [2]; G-quadruplex): 26 ± 2 nM
- Kd (SRSF1 RRM tandem [3]; G-quadruplex): 3200 ± 290 nM
- Kd (SRSF1 full-length; G-quadruplex): 4.6 ± 0.5 nM

B7: ARPC2 GQ (structured_RNA)
RNA: GGGGGCUGGGCGGGGACCGGG
- Kd (RRM tandem F56A): 7000 ± 1500 nM
- Kd (RRM tandem F58A): 1500 ± 80 nM
- Kd (RRM tandem R173A): 140 ± 12 nM
- Kd (SRSF1 RS [2]; G-quadruplex (parallel)): 250 ± 22 nM
- binding result (RS mutant KS): no binding
- Kd (SRSF1 RRM tandem [3]; G-quadruplex (parallel)): 220 ± 19 nM
- Kd (RRM tandem WT (Table 3)): 130 ± 11 nM
- Kd (RRM tandem W134A): 1200 ± 90 nM
- Kd (RRM tandem Y19A): 1800 ± 160 nM
- Kd (RRM tandem Q135A): 350 ± 20 nM
- Kd (SRSF1 full-length; G-quadruplex (parallel)): 3.6 ± 0.7 nM
- binding result (RRM1/RRM2 linker): no binding
- binding result (RS mutant RA): binds

B8: GGG motif RNA (ssRNA)
RNA: UCAGAGGG
- binding signal (SRSF1 RRM tandem [4]): ~3 fold weaker than GGA motif

B9: 8U (ssRNA)
RNA: UUUUUUUU
- Kd (SRSF1 RS [1]): 550 ± 21 nM

B10: 4CU (ssRNA)
RNA: CUCUCUCU
- Kd (SRSF1 RS [1]): 470 ± 12 nM

B11: GGG 3-mer (ssRNA)
RNA: GGG
- binding result (SRSF1 RS [5]): binds

B12: AAA 3-mer (ssRNA)
RNA: AAA
- binding result (SRSF1 RS [6]): no binding

B13: UUU 3-mer (ssRNA)
RNA: UUU
- binding result (SRSF1 RS [6]): no binding

B14: 4GA (ssRNA)
RNA: GAGAGAGA
- Kd (SRSF1 RS [1]): 83 ± 3 nM
